Assay results: patent US20040053425A1

Biological target: human prostate-specific antigen (PSA) (human) (UniProt P07288)
Experiment: cell-based or functional assay

Chain of UniProt P07288 (P07288 25-261 limits assumed): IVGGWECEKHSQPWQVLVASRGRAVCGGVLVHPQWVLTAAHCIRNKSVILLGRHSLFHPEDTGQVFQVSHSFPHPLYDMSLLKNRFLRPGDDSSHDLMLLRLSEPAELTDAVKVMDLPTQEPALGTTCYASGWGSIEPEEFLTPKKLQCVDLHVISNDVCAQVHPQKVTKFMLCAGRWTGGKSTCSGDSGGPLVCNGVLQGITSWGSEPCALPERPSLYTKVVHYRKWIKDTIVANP

- decrease in PSA enzymatic activity: 46%
Substance: anti-PSA monoclonal antibody clone ER-PR8
